How the values were obtained:
[1] = biological target: T1, recombinant mouse EphA4-Fc fusion protein (mouse, UniProt Q03137 20-547, limits assumed); experiment: ELISA, well P15 [part 2]
T1 construct: also called mEphA4; not shown: Fc part, not described

[2] = biological target: T2, rat EphB1 (rat, UniProt P09759 18-538, limits assumed); experiment: ELISA, well L15 [part 2]
T2 sequence (looked up): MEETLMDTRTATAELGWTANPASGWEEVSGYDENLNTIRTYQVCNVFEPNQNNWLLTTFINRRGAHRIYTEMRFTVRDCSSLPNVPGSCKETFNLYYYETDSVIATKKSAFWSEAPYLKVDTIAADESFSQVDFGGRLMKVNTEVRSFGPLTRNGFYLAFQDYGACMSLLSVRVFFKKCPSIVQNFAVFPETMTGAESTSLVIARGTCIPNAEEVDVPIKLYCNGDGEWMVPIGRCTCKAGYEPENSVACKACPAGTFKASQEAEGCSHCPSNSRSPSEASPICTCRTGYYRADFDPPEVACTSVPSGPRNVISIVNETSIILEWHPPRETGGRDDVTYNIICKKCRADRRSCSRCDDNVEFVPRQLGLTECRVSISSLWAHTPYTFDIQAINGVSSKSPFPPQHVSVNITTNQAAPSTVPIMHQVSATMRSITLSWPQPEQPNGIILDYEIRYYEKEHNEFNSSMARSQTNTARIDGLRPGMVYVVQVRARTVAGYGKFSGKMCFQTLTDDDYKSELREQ

[3] = biological target: T3, recombinant mouse EphB2 (mouse, UniProt P54763 19-540, limits assumed); experiment: ELISA, well M15 [part 2]
T3 construct: also called mEphB2
T3 sequence (looked up): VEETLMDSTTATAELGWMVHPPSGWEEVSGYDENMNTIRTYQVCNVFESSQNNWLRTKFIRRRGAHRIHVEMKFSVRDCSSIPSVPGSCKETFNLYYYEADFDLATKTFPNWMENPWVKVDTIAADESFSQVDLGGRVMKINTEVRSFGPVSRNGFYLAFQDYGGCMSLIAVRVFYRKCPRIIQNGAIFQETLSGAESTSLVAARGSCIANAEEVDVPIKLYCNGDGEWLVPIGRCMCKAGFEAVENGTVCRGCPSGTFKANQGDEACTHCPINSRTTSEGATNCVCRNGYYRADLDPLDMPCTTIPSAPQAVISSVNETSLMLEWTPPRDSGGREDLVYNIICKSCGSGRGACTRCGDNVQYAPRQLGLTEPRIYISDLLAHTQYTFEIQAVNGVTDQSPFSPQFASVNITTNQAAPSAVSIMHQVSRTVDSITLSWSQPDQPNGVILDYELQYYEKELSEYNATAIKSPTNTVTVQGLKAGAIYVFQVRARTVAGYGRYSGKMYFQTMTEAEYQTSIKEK

T1 sequence (Q03137 20-547 limits assumed): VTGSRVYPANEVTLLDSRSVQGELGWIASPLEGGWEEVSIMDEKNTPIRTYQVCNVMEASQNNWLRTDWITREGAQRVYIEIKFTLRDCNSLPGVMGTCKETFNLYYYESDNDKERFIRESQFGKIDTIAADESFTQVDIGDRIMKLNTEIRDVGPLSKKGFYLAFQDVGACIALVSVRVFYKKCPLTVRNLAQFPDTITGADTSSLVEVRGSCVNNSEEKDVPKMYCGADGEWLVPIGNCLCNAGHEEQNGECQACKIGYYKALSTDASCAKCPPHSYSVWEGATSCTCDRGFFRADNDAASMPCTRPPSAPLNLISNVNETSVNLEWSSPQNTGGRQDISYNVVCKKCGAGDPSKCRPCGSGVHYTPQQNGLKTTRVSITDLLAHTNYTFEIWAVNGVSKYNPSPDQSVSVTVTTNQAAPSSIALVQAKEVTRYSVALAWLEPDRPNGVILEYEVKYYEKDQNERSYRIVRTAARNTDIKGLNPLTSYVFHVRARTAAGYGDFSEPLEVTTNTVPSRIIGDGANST

binding result [1]: no binding | binding result [2]: no binding | binding result [3]: no binding
B1: MOR03640 Fab (Fab, V domains shown)
VH: QVQLVESGGGLVQPGGSLRLSCAASGFTFNNSWMSWVRQAPGKGLEWVSNITSSSSMTHYADSVKGRFTISRDNSKNTLYLQMNSLRAEDTAVYYCARKGMSFYNNKYAKSMFDLWGQGTLVTVSS
VL: DIELTQPPSVSVAPGQTARISCSGDNLGKKYVHWYQQKPGQAPVLVIYYDSKRPSGIPERFSGSNSGNTATLTISGTQAEDEADYYCSAWTTTMMHIVFGGGTKLTVLG
notes: Monomeric HuCAL Fab, purified, MH-tagged
